Experiment: soluble on expression in E. coli; label from the status in PepcDB or PDB records

Row | Sequence | soluble on expression in E. coli
1 | MEEHYYVSIDIGSSSVKTIVGEKFHNGINVIGTGQTYTSGIKNGLIDDFDIARQAIKDTIKKASIASGVDIKEVFLKLPIIGTEVYDESNEIDFYEDTEINGSHIEKVLEGIREKNDVQETEVINVFPIRFIVDKENEVSDPKELIARHSLKVEAGVIAIQKSILINMIKCVEACGVDVLDVYSDAYNYGSILTATEKELGACVIDIGEDVTQVAFYERGELVDADSIEMAGRDITDDIAQGLNTSYETAEKVKHQYGHAFYDSASDQDIFTVEQVDSDETVQYTQKDLSDFIEARVEEIFFEVFDVLQDLGLTKVNGGFIVTGGSANLLGVKELLSDMVSEKVRIHTPSQMGIRKPEFSSAISTISSSIAFDELLDYVTINYHDNEETEEDVIDVKDKDNESKLGGFDWFKRKTNKKDTHENEVESTDEEIYQSEDNHQEHKQNHEHVQDKDKDKEESKFKKLMKSLFE | not soluble
2 | MGSDKIHHHHHHMCQRPPARRATGPFPTLTASRAAARACTVTFQPNCARPCVRQRPEAAIDMAKTYNPAHADISPAARLAALGAGEAVDLGEYRVIRATHQDRPVFFAVRNAMDAIQKHHIEGAFYETEELDIIRRHFAPGETFIDLGANVGNHALYVAMYLEPAKVLCVEPNSLAYENLLANIVLNGVEETFDLSWLGFGVSCNVGDGFGITHWVHNLGGGKLIPRDGGTISLRSGDDILADTKADFIKIDVEGMEMDVLTSLENTVARDRPKIFVEVDNENRDAVLAWVDTHGYTTHETFKRYRDNENFLFVPESESET | not soluble
3 | MSTVRSIYYRGSLEHCNYTCSYCPFGRKSVSADTTEDQEALDRFISRIGGWKYGSLRILIIPYGEAMIHRYYREGIMRLAAMPHVIGVSCQTNLSFSVSRFLDEAEAEQADVSKFRFWASYHPEMVGVGEFASKVEMLRAAGIGVCAGAVGDPSAKEQIRKLRQLLDPSVYLFVNAMQGLRKPLSEEDIRFFGEIDNLFDYDRRNAKACLDGCVGGRETLFIDRKGDMYACPRSGIRMGNFYDDSTSDFQPFCLRKVCDCYIAFSNLCDTPLRRMMGDGALWRIPERKKVEAVFFDVDGTLTDAQGRIPDRTVSVLEYMAKRLPLYLSTALPVSHAKKRLGNVFGLFSGGVFADGGLLCYGETIECVPIANPMTAGFPGCRVTRYTREGKVFKYAVLAPNTREAVRWLTELDEEAYQLYQEGRLLTVVDSKASKKNGLITLCARLGISLREVLVVGNTMHDWPMMSVAGYSCAVMDAEEKLRKLSGYVLNPDSIPVFFDILEHHHHHH | not soluble
4 | MTEIQKPYDLKGRSLLKESDFTKAEFEGLIDFAITLKEYKKNGIKHHYLSGKNIALLFEKNSTRTRAAFTVASIDLGAHPEFLGKNDIQLGKKESVEDTAKVLGRMFDGIEFRGFSQQAVEDLAKFSGVPVWNGLTDDWHPTQMLADFMTIKENFGYLEGINLTYVGDGRNNIAHSLMVAGAMLGVNVRICTPKSLNPKEAYVDIAKEKASQYGGSVMITDNIAEAVENTDAIYTDVWVSMGEESEFEQRINLLKDYQVNQQMFDLTGKDSTIFLHCLPAFHDTNTLYGQEIYEKYGLAEMEVTDQIFRSEHSKVFDQAENRMHTIKAVMAATLGS | not soluble
5 | MPKERKERSVSLDKYKRSPLCCEASLALKPSEKQVKEWEEARCPVCMEHPHNGILLICSSYENGCRPYMCDTSHRHSNCFDQFRKASKEKPSLSLLREEEESNEPTEMEDVDSDSTAVNLLGEAASEITVVDLSDGERGEEEVEEEEEEVVVEEEEEGIVTTEEDQEKNKPQKLTCPLCRGHIKEWVVVKAARCFMNSKHRSCSCETCDFSGSYSDLRKHARLLHPGVRPSEADPERQRSWRRLERQSDLGDLLSTLQSSFGGDEISNDDGFLFADTRLLTVYFLIRVFRPESSGSRSSSWSGTSRARTHTSGRRRSSRPASLWGESYEGNTGTSPRDEENNQSSDEQVSGTRRRRSRRRTVIDDDDEEEEP | not soluble
6 | MDRVDCIVIGAGVVGLAVARKLAQAGREVIVLEEAEAIGTITSSRNSEVIHAGIYYRAGSWMARMCVNGKHALYRYCGERGIPHKNCGKLIVATNAKETEKLQSIKAHAEANGVLDMQLLTGEAARALEPALACDAALLSPSTGIIDSHAYMLSLRGEAEEAGAAFAFHTPLIRAKAAAGMIEVEAGGEAPMALQCSLLVNAAGLAATTVARNIDGMPLDRIPPAYLAKGNYFSCNAKAPFSHLIYPVPEPGGLGVHLTLDMAGQARFGPDVEWIETINYEVDPSRAERFYPAIRRYWPTLPDGALMPSYSGIRPKIVPPAVATQDFLMQGPRDHGVAGLINLFGIESPGLTSSLAIADHVAELANILEHHHHHH | not soluble
7 | MAFPRTLAILAAAAALVVACSHGGTPTGSSTTSGASPATPVAVPVPRSCAEPAGIPALLSPRDKLAQLLVVGVRDAADAQAVVTNYHVGGILIGSDTDLTIFDGALAEIVAGGGPLPLAVSVDEEGGRVSRLRSLIGGTGPSARELAQTRTVQQVRDLARDRGRQMRKLGITIDFAPVVDVTDAPDDTVIGDRSFGSDPATVTAYAGAYAQGLRDAGVLPVLKHFPGHGRGSGDSHNGGVTTPPLDDLVGDDLVPYRTLVTQAPVGVMVGHLQVPGLTGSEPASLSKAAVNLLRTGTGYGAPPFDGPVFSDDLSGMAAISDRFGVSEAVLRTLQAGADIALWVTTKEVPAVLDRLEQALRAGELPMSAVDRSVVRVATMKGPNPGCGR | not soluble
8 | MQSINLPVDHSKIDANFEGYKVSMNNVHFSSKSLDQNLCLRAPSNEMITLQHMKVFSNDNQLFCDYSKCTDSQQFLYRILDTGHIQAMVYEKKTQIWNTSIVGSIDVGTNASSAFPTNLLFTENNLVVACNGISEITVFLAVSDSNWVKMLEHKVSEQGLSLIEARILNGKLNILAYHVESDDSKKTRSRIHSIRINLDDIDYADSLTVEKSMDLIQNGHFETCTFTNNGEIIFLSSEKPHVEGQQEDMEEKATSGQSKPKPTIEEQSRYLVDIKQLITPFDGDASNYLLFKSTFDYLVHNNHFLEINMKNVALVNALTGDAKQFIVTSNIMEMGYKLTLENLEWTFNRPGFQMRLHSEMLERIKFDENDYSQMETALIKYCSIAREIQLWCGQLFTLFGFHRRITGCDRAQMEHSWEQTGNIIQVAFKLKSEISKEDVKIDTTKTGIRLIVKDLTLLSGKLSGEIDENDVEICADQKTNSLKLKLKSIDDKKWEKLISVEYDTLKSLEDSEIKRTMKGEQVIESDEPMEECDETEGSMAFYWVDQESGKVLKQCDVSGSQVLFTSRQSSTSPALICLRHDVDGLLWSFDESAPSHVATLQAFGYVQASKTSRLWSGCSPNKSLACIVEGNNRVLLYSQKVEVSGSLSNRKTSQTVSHVSKQHLLRVECSDPIRGVQLTDTHLFAATKSHIHVAELNL | not soluble
9 | MGSDKIHHHHHHMFSYEVIRQFTETEHHLYRYIMDNRDKVMFMRVRELSEVTHVSPASIVRFTRKLGCEGFSEFKVKLKQEATREVKKKTADTVEVLEEFFERTMNRDYDHVLDAAAEIINEADLVVFFGIGTSGILAEYGSRFFSNMKKRTFYIKDPFYPNPGEQFKNKAVMIILSVSGETDQVLEQAQNMQQYGSRIISITNTSHNTLAGLSDVNIPYYVTQEMVDKTNITTQIPVLFLLEAMAKKNYNQEQEE | not soluble
10 | MGSDKIHHHHHHMEINVGAVISANRKQKGITQQALADFVGVSKASVSKWETGQSYPDITLLPILAAYFDVSIDKLMAYDAQLSSTEIRRIYTSMKQAFETQPGDAVLKSIRNLIRRYYACYPFLLQMGLLILNHYDLLPGTSQTAKVTEYVNEARLLFVRVRQNSQKAQLTAKAVELEGYSLLLLQRPDDVLALLGEYVPEQLPADSLIAGAFQQKGDFRRAIATSQSGLMQDLSIIMSQLTNYMTLLKDDPNRLAATYQRGQAIAKAFDLATLNPAVWLNFQLAALNGFAQQDKTDEAVALLQEFTHVLTATKMPLTLHGDAYFDAIEPWLEQLDLGSQSPRVSGQAKQVLADFVLQNPALAKIRTLPVVQPLLAELKQVSGHR | not soluble
11 | MGSDKIHHHHHHCKPAARSVITESSLIFTSIHSSYVISTYYKRCVVLSQRKEAVQNMNVYQLKEELIEYAKSIGVDKIGFTTADTFDSLKDRLILQESLGYLSGFEEPDIEKRVTPKLLLPKAKSIVAIALAYPSRMKDAPRSTRTERRGIFCRASWGKDYHDVLREKLDLLEDFLKSKHEDIRTKSMVDTGELSDRAVAERAGIGFSAKNCMITTPEYGSYVYLAEMITNIPFEPDVPIEDMCGSCTKCLDACPTGALVNPGQLNAQRCISFLTQTKGFLPDEFRTKIGNRLYGCDTCQTVCPLNKGKDFHLHPEMEPDPEIAKPLLKPLLAISNREFKEKFGHVSGSWRGKKPIQRNAILALAHFKDASALPELTELMHKDPRPVIRGTAAWAIGKIGDPAYAEELEKALEKEKDEEAKLEIEKGIELLKASGMTKQGLS | not soluble
12 | MGSDKIHHHHHHMVNMNIIEIRSDKIYKKIMDAPINKKEDIYRYELMKPFEFKWKCMNVPIVARQKGGYDVIIASEMLGVLSPKDIDEKQKKNINVLSADKIWATCKETIENSINAFIKEGYDLNIKDYKYSILLANPNSPYTILSDGYWGDGGIPGYIFLSLVPNEYTINRLPVLIAHECNHNIRFQFIEWNNNITLEEMMINEGLAENFATWMFGEEMLGPWVSRTDIETLNTYIKPIIKSALKETGFQNITSYLYGDDIAKMQGYFPVGLPYCAGYACGYYMIKYYLEKTNKSIIEATLLPYSEIIEAVKEFWE | not soluble
13 | MPRSSLRLLAKPLLESRRGFCTSSDKIVASVLFERLRVVIPKPDPAVYAFQEFKFNWQQQFRRRYPDEFLDIAKNRAKGEYQMDYVPAPRITEADKNNDRKSLYRALDKKLYLLIFGKPFGATSDKPVWHFPEKVYDSEPTLRKCAESALKSVVGDLTHTYFVGNAPMAHMAIQPTEEMPDLPSYKRFFFKCSVVAASKYDISNCEDFVWVTKDELLEFFPEQAEFFNKMIIS | soluble
14 | MDKKVTDSTQRGYYIVYLFSEDMCRLYLTLTQRVTETPRDEMERVKQDIRQQIPVGGRVQTDNAIRLSASKRAKEYERSVAVYIAYSFDNLPSDEQLVSDLKTMIGYYRQYVERTEKMTPFKQSLSDRSVVEHIHFYITAKGFYYTQEEVMNLFLSLKTKPFVILSGISGTGKTKIAQWLAESVGATEDNGQFILIPVCPDWNDGSDLLGYVDIKGDFKPGPLTNVITEAENHPDKPYFVVLDEMNLARVEHYFSDVLSVMGSRRWENGRITLSRLLPKETAGRDLFLPPNVYIIGTVNMDETTHPFSKKVLDRANTIEFNRIRLDHLDFLRDLPTVAPLSGGQEWFAARLEHHHHHH | not soluble
15 | SFVPSQKTYQGNYGFHLGFLQSGTAKSVMCTYSPPLNKLFCQLAKTCPVQLWVSATPPAGSRVRAMAIYKKSQHMTEVVRRCPHHERCSDGDGLAPPQHLIRVEGNLYPEYLEDRQTFRHSVVVPYEPPEAGSEYTTIHYKYMCNSSCMGGMNRRPILTIITLEDSSGNLLGRDSFEVRVCACPGRDRRTEEENFRKKEVL | soluble
16 | MKFFVFALVLALMISMISADSHEKRHHGYRRKFHEKHHSHREFPFYGDYGSNYLYDNLEHHHHHH | not soluble
17 | MISTRFLRPSVSIFGFGIKSSMSSRAPPKALLQDMVVPPRQLFGPGPSNMADSIAETQSRNLLGHLHPEFVQIMADVRLGLQYVFKTDNKYTFAVSGTGHSGMECAMVNLLEPGDKFLVVEIGLWGQRAADLANRMGIEVKKITAPQGQAVPVEDIRKAIADYKPNLVFVCQGDSSTGVAQPLETIGDACREHGALFLVDTVASLGGTPFAADDLKVDCVYSATQKVLNAPPGLAPISFSDRAMEKIRNRKQRVASFYFDAIELGNYWGCDGELKRYHHTAPISTVYALRAALSAIAKEGIDESIQRHKDNAQVLYATLKKHGLEPFVVDEKLRLPCLTTVKVPEGVDWKDVAGKMMTNGTEIAGGLGATVGKIWRIGTFGINSNSTKIENVVELLSKSIGEKSK | not soluble
